Experimental data reported in publication doi:10.1101/2025.04.12.648492 (bioRxiv, 2025).

Tests used:
[1] = biological target: T1, alanine:glyoxylate aminotransferase 1, wild-type (major haplotype) (Homo sapiens, major haplotype, UniProt P21549); assay: SPR
[2] = biological target: T1, alanine:glyoxylate aminotransferase 1, …; assay: ELISA

T1 sequence (P21549 whole entry): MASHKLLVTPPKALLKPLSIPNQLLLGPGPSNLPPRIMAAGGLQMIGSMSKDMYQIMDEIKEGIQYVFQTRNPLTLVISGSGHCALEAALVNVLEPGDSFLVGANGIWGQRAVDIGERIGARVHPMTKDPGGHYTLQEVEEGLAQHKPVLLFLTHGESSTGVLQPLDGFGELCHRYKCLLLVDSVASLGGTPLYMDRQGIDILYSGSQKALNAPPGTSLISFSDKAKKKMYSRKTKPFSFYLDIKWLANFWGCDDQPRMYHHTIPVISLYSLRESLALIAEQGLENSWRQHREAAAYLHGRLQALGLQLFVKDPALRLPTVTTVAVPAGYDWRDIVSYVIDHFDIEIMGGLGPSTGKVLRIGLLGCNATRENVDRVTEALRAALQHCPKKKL

Binder | binding result [1] | binding result [2]
NB-AGT-3 (VHH) VHH: QVQLVESGGGLVQAGGSLILSCAASGFTFGHYAIGWFRQAPGKEREGVSCINSNDGSTYYADSVKGRFTISSDNAKNTVYLQMNSLKPEDTAVYYCAADYPPYYCSGYGWPSDGINYWGKGTQVTVS | binds | –
NB-AGT-3, HA-tagged clone from the phage display vector (VHH) VHH: QVQLVESGGGLVQAGGSLILSCAASGFTFGHYAIGWFRQAPGKEREGVSCINSNDGSTYYADSVKGRFTISSDNAKNTVYLQMNSLKPEDTAVYYCAADYPPYYCSGYGWPSDGINYWGKGTQVTVS | – | binds
NB-AGT-4 (VHH) VHH: QVQLVESGGGLVQSGGSLRLSCVASGGTFSTWSMGWFRQAPGKEREFVAVISWSGTIADYGDSVKGRFTISRDNAKNTVYLQMNSLKPEDTAVYYCAADPVGRVLYSDVGWQYWGQGTQVTVS | binds | –
NB-AGT-4, HA-tagged clone from the phage display vector (VHH) VHH: QVQLVESGGGLVQSGGSLRLSCVASGGTFSTWSMGWFRQAPGKEREFVAVISWSGTIADYGDSVKGRFTISRDNAKNTVYLQMNSLKPEDTAVYYCAADPVGRVLYSDVGWQYWGQGTQVTVS | – | binds
NB-AGT-2 (VHH) VHH: QVQLVESGGGLVQAGGSLRLSCAASGRTFSSYAMGWFRQAPGKEREFVAAINWSGGSTFYADSVKGRFTISRDNAKNTVYLQMNSLKPEDTAVYYCAAARADPYYSISYYSTTHEYDYWGQGTQVTVS | binds | –
NB-AGT-2, HA-tagged clone from the phage display vector (VHH) VHH: QVQLVESGGGLVQAGGSLRLSCAASGRTFSSYAMGWFRQAPGKEREFVAAINWSGGSTFYADSVKGRFTISRDNAKNTVYLQMNSLKPEDTAVYYCAAARADPYYSISYYSTTHEYDYWGQGTQVTVS | – | binds
NB-AGT-6, HA-tagged clone from the phage display vector (VHH) VHH: QVQLVESGGGSVQTGGSLRLACVASGFTSDHYSIGWFRQAPGKEREGVSCIGMHDGSTKYAESVKGRFTISSDNDKNTVYLQMNSLKPEDTAVYYCAAGPLVLLDSDTYQSWGEGTQVTVS | – | binds
NB-AGT-6 (VHH) VHH: QVQLVESGGGSVQTGGSLRLACVASGFTSDHYSIGWFRQAPGKEREGVSCIGMHDGSTKYAESVKGRFTISSDNDKNTVYLQMNSLKPEDTAVYYCAAGPLVLLDSDTYQSWGEGTQVTVS | binds | –
